Experimental data from article doi:10.1101/2023.08.09.551721 (bioRxiv, 2023).

Biological target: histone H4 (in the nucleosome) (Xenopus laevis, UniProt P62799)
Assay: cryo-EM structure

B1: DDM1-HELLS chimeric protein (DDM1^HELLS) (enzyme)
chain: MVSLRSRKVIPASEMVSDGKTEKDASGDSPTSVLNEEENCEEKSVTVVEEEILLAKNGDSSLISEAMAQEEEQLLKLREDEEKANNAGSAVAPNLNETQFTKLDELLTQTQLYSEFLLEKMEDITINGIESESQKAEPEKTGRGRKRKAASQYNNTKAKRAVAAMISRSKEDGETINSDLTEEETVIKLQNELCPLLTGGQLKSYQLKGVKWLISLWQNGLNGILADQMGLGKTIQTIGFLSHLKGNGLDGPYLVIAPLSTLSNWFNEIARFTPSINAIIYHGDKNQRDELRRKHMPKTVGPKFPIVITSYEVAMNDAKRILRHYPWKYVVIDEGHRLKNHKCKLLRELKHLKMDNKLLLTGTPLQNNLSELWSLLNFILPDIFTSHDEFESWFDFSEKNKNEATKEEEEKRRAQVVSKLHGILRPFILRRMKCDVELSLPRKKEIIMYATMTDHQKKFQEHLVNNTLEAHLGENAIRGIELSPTGRPKRRTRKSINYSKIDDFPNELEKLISQIQPEVDRERAVVEVNIPVEQGWKGKLNNLVIQLRKNCNHPDLLQGQIDGSYLYPPVEEIVGQCGKFRLLERLLVRLFANNHKVLIFSQWTKLLDIMDYYFSEKGFEVCRIDGSVKLDERRRQIKDFSDEKSSCSIFLLSTRAGGLGINLTAADTCILYDSDWNPQMDLQAMDRCHRIGQTKPVHVYRLSTAQSIETRVLKRAYSKLKLEHVVIGQGQFHQERAKSSTPLEEEDILALLKEDETAEDKLIQTDISDADLDRLLDRSDLTITAPGETQAAEAFPVKGPGWEVVLPSSGGMLSSLNS
- binding result: binds
